Results published in patent US20230104769A1 (MABWELL SHANGHAI BIOSCIENCE, published 2023).

Tests used:
[1] = target: T1, human PD-1-hFc (NCBI accession No.: NP_005009.2, 21aa-167aa, Lot: 20180329) (human, UniProt Q15116 21-167); assay: competition ELISA, plate-bound PD-1-hFc, competitor PD-L1-mFc 1 µg/mL; competitor PD-L1
T1 construct: range 21-167; not shown: human Fc (hFc)
Protocol: Afterwards, HRP-anti-mouse Fc (Cat: 115-035-071, Jackson Immuno Research) which was diluted at a dilution of 1:5000 was added to the plate for reacting for 45 min. Later, TMB substrate (Cat: ME142, Beijing Taitianhe Biotech Co., Ltd.) was added to develop color for 15 min, which was followed by the addition of 2 M HCl to terminate the reaction and then the plate was detected by a microplate reader. With 630 nm as reference wavelength, the absorbance at 450 nm (A450 nm-630 nm) of each well in the plate was read and recorded.

N116A = target: T2, N116A; assay: flow cytometry on transfected HEK293 cells, antibody 2 µg/ml, goat anti-human IgG(Fc)-Cy5; no negative-control bar is drawn
T2 construct: also called full-length human PD-1 N116A expressed on HEK293 cells; PD-1-mut N116A; not shown: EGFP of the expression vector, if it is fused to PD-1
Protocol: (§1) The mutants obtained were inserted into an expression vector carrying EGFP to construct five plasmids expressing full-length human PD-1 (WT, N49A, N58A., N116A, N74A). […] 2 days after the transfection, the cells were collected to a 96-well plate, centrifuged at 1500 rpm for 2 minutes, and the supernatants in the wells were discarded. […] The working concentration of the primary antibodies was 2 μg/ml, and cells without primary antibodies added were used as negative controls. The mixtures obtained were centrifuged at 1500 rpm for 2 minutes, and supernatants were discarded. The cells in each well were resuspended by adding 200 μl PBS and the suspensions obtained were then centrifuged at 1500 rpm for 2 minutes, then supernatants were discarded. Later, the obtained cells were incubated with 200 μl goat anti-human IgG(Fc)-Cy5 (Cat: 12136, Lot: 017M4800V, Sigma) diluted with 5% BSA added into each well for 1 h at room temperature, then centrifuged at 1500 rpm for 2 minutes, and supernatants were discarded. The cells were resuspended by adding 200 μl PBS and the suspensions obtained were then centrifuged at 1500 rpm for 2 minutes, then supernatants were discarded. The cells again were resuspended by adding 200 μl PBS thereto and detected by flow cytometry (B49007AD, SNAW31211).

N49A = target: T3, N49A; assay: as above
T3 construct: also called full-length human PD-1 N49A expressed on HEK293 cells; PD-1-mut N49A; not shown: EGFP of the expression vector, if it is fused to PD-1
Protocol: as §1

[2] = target: T1, human PD-1-hFc (NCBI accession No.: …); assay: competition ELISA, plate-bound PD-1-hFc, competitor PD-L2-hFc-Biotin 2 µg/mL; competitor PD-L2
Protocol: Afterwards, HRP-streptavidin (Cat: 52438, Sigma) which was diluted at a dilution of 1:2000 was added to the plate for reacting for 30 min. Later, TMB substrate was added to develop color for 15 min, which was followed by the addition of 2 M HCl to terminate the reaction and then the plate was detected by a microplate reader. With 630 nm as reference wavelength, the absorbance at 450 nm (A450 nm-630 nm) of each well in the plate was read and recorded.

T1 sequence (Q15116 21-167 limits assumed, form in doubt): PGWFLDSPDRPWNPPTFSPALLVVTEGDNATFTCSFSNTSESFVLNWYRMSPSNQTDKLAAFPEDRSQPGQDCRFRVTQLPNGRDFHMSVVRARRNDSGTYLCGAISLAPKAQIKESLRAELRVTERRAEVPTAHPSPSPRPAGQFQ
T3 sequence (chain, as listed by the source N49A N49A limits assumed): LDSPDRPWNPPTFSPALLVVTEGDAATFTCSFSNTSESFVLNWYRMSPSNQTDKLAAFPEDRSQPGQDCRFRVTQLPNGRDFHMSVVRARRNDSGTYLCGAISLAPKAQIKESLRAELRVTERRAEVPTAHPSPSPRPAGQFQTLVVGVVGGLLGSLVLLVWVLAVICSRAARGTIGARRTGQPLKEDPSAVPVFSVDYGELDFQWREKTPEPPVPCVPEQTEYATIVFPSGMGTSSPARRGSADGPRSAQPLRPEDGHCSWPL
T2 sequence (chain, as listed by the source N116A N116A limits assumed): as the sequence (chain, as listed by the source N49A N49A limits assumed) above, with A25N, N92A counted along it

B1: h317 (humanized anti-human PD-1 antibody) (antibody, V domains shown)
VH: EVQLVESGGGLVKPGGSLRLSCAASGFTFSSYDMSWVRQAPGKGLEWVATISGGGSYTYYPDSVKGRFTISRDNAKNSLYLQMNSLRAEDTAVYYCASPDSSGVAYWGQGTLVTVSS
VL: DIVMTQSPLSLPVTPGEPASITCKASQDVETVVAWYLQKPGQSPRLLIYWASTRHTGVPDRFSGSGSGTDFTLKISRVEAEDVGVYYCQQYSRYPWTFGQGTKL
notes: also called h317-biotin; biotinylated h317
[1]
  IC50: 1.4 nM
N116A
  binding result: binds
N49A
  binding result: binds
[2]
  IC50: 1.2 nM
